{"source": "patent US9476056B2", "about": "“Recombinant vector for producing and secreting peptide or protein of interest by propionibacteria and applications thereof” (INSTITUT NATIONAL DE LA SANTE ET DE LA RECHERCHE MEDICALE …, priority 2010, dated 2016)", "molecules": {"B1": {"name": "TRAIL: cytokine TNF-related apoptosis-inducing ligand; SuperKillerTRAIL™ (Alexis Biochemicals) used in the HT29 test (protein)", "chain": "TSEETISTVQEKQQNISPLVRERGPQRVAAHITGTRGRSNTLSSPNSKNEKALGRKINSWESSRSGHSFLSNLHLRNGELVIHEKGFYYIYSQTYFRFQEEIKENTKNDKQMVQYIYKYTSYPDPILLMKSARNSCWSKDAEYGLYSIYQGGIFELKENDRIFVSVTNEHLIDMDHEASFFGAFLVG"}}, "system": "HT29 human colon cancer cells", "assay": "Cytotoxicity (viability) test on HT29 cells, methylene blue staining", "type": "cell-based", "settings": "TRAIL alone, sublethal doses 25, 50 and 100 ng/ml, 24 hours", "description": "FIG. 1: Graphs illustrating the synergy observed in vitro between TRAIL and P. freudenreichii metabolites. HT29 colon cancer cells were treated with sublethal doses of TRAIL (25 ng/ml, 50 ng/ml and 100 ng/ml). Various doses of SCFA (propionate/acetate SCFA, FIG. 1A) or of P. freudenreichii supernatant (FIG. 1B) were used in co-treatment. Viability of the HT29 cells was determined after 24 hours of treatment. […] More precisely, the viability illustrated in FIG. 1 was determined using the following cytotoxicity test. HT29 human colon cancer cells (ATCC, Biovalley) were cultured in 96-well plates (30,000 cells/well) for 24 hours. […] At the end of treatment (24 hours), the medium was discarded and the adherent cells were washed three times with 1× PBS (100 μl/well) and fixed in 99% ethanol (100 μl/well) for 30 minutes. After discarding the ethanol, the fixed cells were air dried and then stained for 30 minutes with methylene blue (diluted in 1× borate buffer). After three washings in water and drying (roughly 30 minutes), 100 μl of hydrochloric acid (0.1 N) was added to the wells. The plates were then analyzed by spectrophotometer at a wavelength of 620 nm (iEMS Reader MF; Lab-systems, Helsinki, Finland)."}
{"molecule": "B1", "values": [{"measurement": "cell death (viability of HT29 cells)", "result": "do not significantly induce cell death"}]}
